Measurements published in article PMC10718073 (Chemical Science, 2023).

Columns and labels:
Test in all cases: native MS
[1] = biological target: AmtB from Escherichia coli (Escherichia coli) (UniProt P69681)
[2] = biological target: AqpZ with C-terminal fusion to the green fluorescent protein (Escherichia coli) (UniProt P60844)
[3] = biological target: the molecule itself
[4] = biological target: the molecule itself; remark: listed apart in the source

AmtB from Escherichia coli (from UniProt P69681 23-428) (natural protein)
stoichiometry N [1]: 3

AqpZ with C-terminal fusion to the green fluorescent protein (from UniProt P60844 1-231) (natural protein)
stoichiometry N [2]: 4

B1: TREK2, residues 55-335 with T58A (domain or fragment)
chain: MEGASQGGLQTVMKWKTVVAIFVVVVVYLVTGGLVFRALEQPFESSQKNTIALEKAEFLRDHVCVSPQELETLIQHALDADNAGVSPIGNSSNNSSHWDLGSAFFFAGTVITTIGYGNIAPSTEGGKIFCILYAIFGIPLFGFLLAGIGDQLGTIFGKSIARVEKVFRKKQVSQTKIRVISTILFILAGCIVFVTIPAVIFKYIEGWTALESIYFVVVTLTTVGFGDFVAGGNAGINYREWYKPLVWFWILVGLAYFAAVLSMIGDWLRVLSKKTKEEVGE
modifications: glycans, treated with EndoH to reduce the glycan heterogeneity
binding result [3]: binds

B2: TRAAK (K2p4.1b), residues 1-290 with N104Q and N108Q (domain or fragment)
chain: MTTAPQEPPARPLQAGSGAGPAPGRAMRSTTLLALLALVLLYLVSGALVFRALEQPHEQQAQRELGEVREKFLRAHPCVSDQELGLLIKEVADALGGGADPETQSTSQSSHSAWDLGSAFFFSGTIITTIGYGNVALRTDAGRLFCIFYALVGIPLFGILLAGVGDRLGSSLRHGIGHIEAIFLKWHVPPELVRVLSAMLFLLIGCLLFVLTPTFVFCYMEDWSKLEAIYFVIVTLTTVGFGDYVAGADPRQDSPAYQPLVWFWILLGLAYFASVLTTIGNWLRVVSRRT
stoichiometry N [4]: 2
